Measurements: article PMC2064808

Target: GST-β3 integrin cytodomain (human) (UniProt P05106)
Test: ELISA

Chain of UniProt P05106 (P05106 27-788): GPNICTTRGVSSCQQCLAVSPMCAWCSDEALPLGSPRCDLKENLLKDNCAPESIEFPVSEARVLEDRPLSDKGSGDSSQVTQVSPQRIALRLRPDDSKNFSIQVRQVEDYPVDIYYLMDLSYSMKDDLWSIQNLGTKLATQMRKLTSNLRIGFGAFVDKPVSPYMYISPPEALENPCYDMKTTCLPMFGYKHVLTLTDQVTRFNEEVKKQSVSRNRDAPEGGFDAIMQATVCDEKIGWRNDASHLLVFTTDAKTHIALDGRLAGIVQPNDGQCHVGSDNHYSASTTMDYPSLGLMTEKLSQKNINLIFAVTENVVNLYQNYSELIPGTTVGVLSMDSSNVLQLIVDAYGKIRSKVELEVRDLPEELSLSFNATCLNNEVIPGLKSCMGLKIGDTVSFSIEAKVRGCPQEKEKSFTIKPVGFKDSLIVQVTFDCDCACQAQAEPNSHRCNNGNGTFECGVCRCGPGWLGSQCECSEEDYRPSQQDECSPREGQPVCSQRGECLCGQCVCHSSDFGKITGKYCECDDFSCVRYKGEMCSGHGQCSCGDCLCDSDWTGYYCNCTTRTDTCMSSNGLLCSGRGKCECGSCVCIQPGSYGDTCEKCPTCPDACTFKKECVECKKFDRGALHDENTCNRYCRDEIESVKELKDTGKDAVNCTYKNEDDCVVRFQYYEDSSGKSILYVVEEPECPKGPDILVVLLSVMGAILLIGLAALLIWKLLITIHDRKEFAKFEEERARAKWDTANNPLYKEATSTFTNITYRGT

B1: His-PKD1 treated with alkaline phosphatase (enzyme)
chain: MSVPPLLRPPSPLLPAAAAVAAAAAALVPGSGPAPFPAPGAAPAGGISFHLQIGLSREPVLLLQDSSGDYSLAHVREMACSIVDQKFPECGFYGLYDKILLFRHDPASDNILQLVKIASDIQEGDLIEVVLSASATFEDFQIRPHALFVHSYRAPAFCDHCGEMLWGLVRQGLKCEGCGLNYHKRCAFKIPNNCSGVRRRRLSNVSLTGLGTVRTASAEFSTSVPDEPLLSPVSPGFEQKSPSESFIGREKRSNSQSYIGRPIQLDKLLMSKVKVPHTFVIHSYTRPTVCQFCKKLLKGLFRQGLQCKDCRFNCHKRCAPKVPNNCLGEVTINGELLSPGAESDVVMEEGSDDNDSERNSGLMDDMDEAMVQDTEMALAEGQSGGAEMQDPDADQEDSNRTISPSTSNNIPLMRVVQSVKHTKRRSSTVMKEGWMVHYTSKDTLRKRHYWRLDSKCITLFQNDTGSRYYKEIPLSEILCLEPAKPSALTPVGATPHCFEITTANVVYYVGENVVNPSSSPPNNSVLPSGIGPDVARMWEVAIQHALMPVIPKGSSVGSGSNSHKDISVSISVSNCQIQENVDISTVYQIFPDEVLGSGQFGIVYGGKHRKTGRDVAIKIIDKLRFPTKQESQLRNEVAILQNLHHPGVVNLECMFETPERVFVVMEKLHGDMLEMILSSEKGRLPEHITKFLITQILVALRHLHFKNIVHCDLKPENVLLASADPFPQVKLCDFGFARIIGEKSFRRSVVGTPAYLAPEVLRNKGYNRSLDMWSVGVIIYVSLSGTFPFNEDEDIHDQIQNAAFMYPPNPWKEISHEAIDLINNLLQVKMRKRYSVDKTLSHPWLQDYQTWLDLRELECRIGERYITHESDDSRWEQYAGEQGLQYPAHLISLSASHSDSPEAEEREMKALSERVSIL
modifications: ~80% dephosphorylation of the kinase by alkaline phosphatase
Q: For B1, which fold reduction of affinity against untreated PKD1 is on record?
A: Its fold reduction of affinity against untreated PKD1 is 5 fold.
